Consider 1 substance from US20230285589A1, “LIPOSOME COMPLEX FOR CANCER TREATMENT, COMPRISING NOVEL CD47 BINDER AND POLYNUCLEOTIDE” (priority 2020, published 2023).

The assay addresses recombinant CD47 protein (Homo sapiens, UniProt Q08722). In words: SPR, CD47 conjugated to CM5 chip. The following applies: 250 RU CD47, 1:1 binding model. The method, then:
Specifically, the recombinant CD47 protein was conjugated to the surface of the CM5 chip by a target SPR reaction of 250 RU through an EDC-NHS reaction to be used, and for HBS-P, the sensogram obtained through a process of association for 3 minutes and dissociation for 10 minutes at a flow rate of 30 μL/minutes was analyzed with the BiaEvaluation software using a 1:1 binding model and global fitting.

Sequence of recombinant CD47 protein (Q08722 19-323): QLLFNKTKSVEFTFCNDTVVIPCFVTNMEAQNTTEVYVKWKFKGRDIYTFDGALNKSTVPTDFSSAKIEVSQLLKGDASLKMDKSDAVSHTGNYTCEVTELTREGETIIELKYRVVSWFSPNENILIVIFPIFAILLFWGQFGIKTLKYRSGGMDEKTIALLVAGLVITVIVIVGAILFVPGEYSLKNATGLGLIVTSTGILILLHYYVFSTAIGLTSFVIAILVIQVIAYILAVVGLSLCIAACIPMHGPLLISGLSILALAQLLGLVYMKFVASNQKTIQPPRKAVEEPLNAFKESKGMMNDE

The Kd is the equilibrium constant for the complex coming apart. Consider “Sirpα: pure Sirpa (SEQ ID NO: 25), water-soluble domain of the original CD47 ligand”, for which the ka was 610000 M⁻¹ s⁻¹ and the kd was 0.37 s⁻¹. Moreover, the Kd (listed as Sirpa(wt)) stood at 280 nM.
